Assay results from the DeepSol protein solubility set.

Assay: soluble on expression in E. coli; label from the status in PepcDB or PDB records

| Sequence | soluble on expression in E. coli |
| --- | --- |
| MGHVLIEMMGIKKGDFVLDVGCGTGRQALNVAGIIGPAGKLTGIDPSSYRIELARKKFEGDSSGNVRFLVRQAENLQDIPDNSINHAYFCSSFHWVDDKKTALNEIFRVLRPGGKVGMTTLDRNSPNTMKALIDPILAKFGIERRHEWHRGMKKVTAPELHDLLSGAGFTSISIEPRAVPRKYNSPEEFLQHPEEKDSSRGILRDISNETLEKLRQEITEEFRKAQTPEDIGFGNITLFAIATKAQEGLEHHHHHH | soluble |
| MTNWKPLVSVITPSYNARDYIEDTVHSVLDQSHPHWEMIIVDDCSTDGTRDILQQYEKIDERIHVVYLEENSGAAVARNKALERAQGRYVAFLDSDDKWKKDKLEKQLEFMMERSCAFSFTGYSLMAQDGTPLDKFIHAPESLTYDDALKNTIIGCLTVMIDREQTGQIQMPNIRTRQDLATWLSLLKKGFTAYGMNECLAEYRLVNNSISSNKWKAAKKTWFVYREIERLHFMKATWCFVQYAKNAVKKRL | soluble |
| SKVWKYFGFDTNAEGCILQWKKIYCRICMAQIAYSGNTSNLSYHLEKNHPEEFCEFVKSN | soluble |
| MSLENKHVTIYDIAERLNLATSTISRALKDHHTISDKTIKKVKKTAEEMGFVPNTLAAGLRGNKTRTIGVLIPTVTQPFLSSLISGIEITAQKSDYTVIIMQSHDSYEEEVNMAKSLYSNRVSGVICSLAMETRDTAHFHQFSNNNIPLVFVDRVPKDYNTFRVVIDNYTAGYKATKHLIEQGCIRIAHLTAGSELGNLYNERKRGYIEALKDHNIEVEEELIINLNSVTYEDGVKASNALFDLKPIPDGLFAPGDILAVSAVQTAKKRGTKVPEEFKVIGFNNDPISQIIDPNLSTITHPAEKMGKAAAEIIIKNLKSSKNDDAKEITFLNTEVLARESSSKEGHHHHHH | soluble |
| MIFRFGFVSNAMSLWDASPAKTLTFARYSKLSKTERKEALLTVTKANLRNTMRTLHYIIGHGIPLYRFSSSIVPLATHPDVMWDFVTPFQKEFREIGELVKTHQLRTSFHPNQFTLFTSPKESVTKNAVTDMAYHYRMLEAMGIADRSVINIHIGGAYGNKDTATAQFHQNIKQLPQEIKERMTLENDDKTYTTEETLQVCEQEDVPFVFDFHHFYANPDDHADLNVALPRMIKTWERIGLQPKVHLSSPKSEQAIRSHADYVDANFLLPLLERFRQWGTNIDFMIEAKQKDKALLRLMDELSSIRGVKRIGGGALQWKS | not soluble |
| MLTESTDKKAVNQVIHYVYEGGGEAATDHNATVDFSRTITTDRVTNDKTYGDWTADNGDSFASVTSPVIDGYTADQLKVSEMTGITADTEDISVTVTYTRNQGTIDITYIDQTTGQTLSKLEHHHHHH | not soluble |
| MGSDKIHHHHHHMNIPNIRLLNQQLLNPLFREPKELVSWMGAMQAQNYSMVKWAVGMRLKSATIQTVEKALREGEILRTHVMRPTWHLVAAEDIRWMLKLSAQRIISANDSFAKGYDLDIPNELYTKAHDLLEKILCGKKSLTKQEIAEHFNRSGIVADNRRMTRFMARAEQEGIICSGEDRGSKCTYALLEERVPPMPELTKDESLARLARSYFRSHSPAVLQDFIWWSGLSVSDAKQAVYLIASELITEQWKEQTWYIHDICRTRGKLSGHIHLLPSYDEYLLGYKDRTDVLPLEHYSKAFTNNGLFFPIVLHNGQVIGNWDKSVKKKSVDLKYSWFRQVADMNEETLERERQKFTRFLEK | not soluble |
| MSLEYENEIMDLINDYDMLRVLKHFTVAHVDYAKNITRYTEIPQIRVRAYLERLKEMGLLDYYTNTSIKRTEAKLKKSAEVHKHHTYYQINKKAEAVLKEITPKLYVKVLGKEKLELLCSRKVRKTSPDRCTGLQAMGLIDKCFDLTELGREVFEAALRMQAIRCQDEGHHHHHH | soluble |
| MRIVPFGAAREVTGSAHLLLAGGRRVLLDCGMFQGKEEARNHAPFGFDPKEVDAVLLTHAHLDHVGRLPKLFREGYRGPVYATRATVLLMEIVLEDALKVMDEPFFGPEDVEEALGHLRPLEYGEWLRLGALSLAFGQAGHLPGSAFVVAQGEGRTLVYSGDLGNREKDVLPDPSLPPLADLVLAEGTYGDRPHRPYRETVREFLEILEKTLSQGGKVLIPTFAVERAQEILYVLYTHGHRLPRAPIYLDSPMAGRVLSLYPRLVRYFSEEVQAHFLQGKNPFRPAGLEVVEHTEASKALNRAPGPMVVLAGSGMLAGGRILHHLKHGLSDPRNALVFVGYQPQGGLGAEIIARPPAVRILGEEVPLRASVHTLGGFSGHAGQDELLDWLQGEPRVVLVHGEEEKLLALGKLLALRGQEVSLARFGEGVPV | soluble |
| EILPNFFKSARPIEGLRPYTVLETAGRQIYIQEGCYHCHSQLIRPFQAEVDRYGAYSLSGEYAYDRPFLWGSKRIGPDLHRVGDYRTTDWHEKHMFDPKSVVPHSIMPAYKHLFTKKSDFDTAYAEALTQKKVFGVPYDTENGVKLGSVEEAKKAYLEEAKKITADMKDKRVLEAIERGEVLEIVALIAYLNSLGNSRINANQNA | not soluble |
| MAKVCYFTGRKTSSGNNRSHAMNSTKRTVKPNLQKVRVLIDGKPKKVWVSTRALKSGKIERVLEHHHHHH | not soluble |
| MIGIVAAFEKVKIPEMGKSFGTGWLPPLPSLKDYTEESAQIPEMAEKLGIPTSRKETKTLELPVSIDFRNWCSPIEDQMDLGSCTAHAGVGVVEYFERRAFGKHIDGSRFFVYKTTRNLMGVKGDTGAWLRNTMGALALCGVPPEKYFPYTSRKTPGPDGEPTFDDEPSSFVYSLADNFEALNYFCHDPQGMNLPPEDVILSVKKYLAAGIPSMFGFYGFPSFKDTDVKGGIPFPGPDERSIWGHAVVAVGYDDNMKIRNTLSNKETTGAFLIRNSWGTAWGDKGYGWLPYEYALNKFALDFWSLISMKWVETGNFGLELESSRSRARETLSRDMPLPHALEHHHHHH | soluble |
| MVWSAFLHFYQIGNSGSNAYYTAAAKSMAASWKAFFFAALDPAGFITVDKPPVALWLQALSVKVFGVSDFSVLLPEALAADCIRGRAVWFACAAGVLVVDARVGRDKQHDSVCRTGFASGRSGHAGCWDAGGARWALAGRAKHRAAEDGNRLRDNSSLAALVVYLEQHAGKAKYLAATIRATEAAEMMLHTDRAVMAMGGFGGTDPVLTPEKLEQMAQNGEVKYFLLSGEDRGNNELVQWIQTHCKEVPSSQWGGGQSAAIGGMGRGGMTLYVYNG | not soluble |
| MHVMIFGAGYSGKAIANALKTKAASVCGTTRSADKFANLAAAGMTPLLFDGVHLDDDLIAAMRNVTHLVQSIAPGKDGDPLFALLGGDLKKLLPNLKWLAYLSTVGVYGDHHGAWVNETTPCRPVSARSVERVAAEAAWTEAAQSADVPLSILRLSGIYGPGRNTFMNFEKGTARRLVKKDQVFNRIRVEDIGAAIAFLALKNERGIFNVTDDEPCPPQDVVSFAADLMGVVPPAEQDFGTADLTPMARSFYGENKRVSNAKIRELGFDFRFPEYRQSLKQLWESSLWRG | not soluble |
| SMRSGSSMKEEPLGSGMNAVRTWMQGAGVLDANTAAQSGVGLARAHFEKQPPSNLRKSNFFHFVLALYDRQGQPVEIERTAFVGFVEKEKEANSEKTNNGIHYRLQLLYSNGIRTEQDFYVRLIDSMTKQAIVYEGQDKNPEMCRVLLTHEIMCSRCCDKKSCGNRNETPSDPVIIDRFFLKFFLKCNQNCLKNAGNPRDMRRFQVVVSTTVNVDGHVLAVSDNMFVHNNSKHGRRARRLDPS | soluble |
| MNLKQAFIDNNSIRLGLSADTWQEAVRLAVQPLIDSKAVTSAYYDAIIASTEKYGPYYVLMPGMAMPHAEAGLGVNRNAFALITLTKPVTFSDGKEVSVLLTLAATDPSIHTTVAIPQIVALFELDNAIERLVACQSPKEVLEMVEESKDSPYLEGMDLNA | soluble |
| MSLWLQISNARIVCEDHLVEAGLAICDGLIDCFEQGGTSKAEAIDFDGDFLLPGLIDLHTDSVEHFMQPRPGVQWPSPLAAVLAHDWQLLGSGITTVLDALALGDYDSGGTRTAMLNDAIDGLTQARASGLLKTDHYFHFRCELSDPALLPIVERHVDNPGLRLISMMDHTPGQRQWHNLTLYREFRRKKNARVWNEEEFALHLAERREHQQQYVPPGRSTIGHLCRERDIRIASHDDTAAADVDESRGDGITISEFPTTVEAASRARELGMKIVMGSPNIILGGSHSGNVSALELADRGLLDVLTSDYVPGSLLHAAFALAAKGFDLPEAVAMVTKTPADLLGFSDRGRIAPGLRADLIRVRLVEGVPVIRNIWVAGRQYLEGHHHHHH | not soluble |
| DCMFGNGKGYRGKRVTTVTGTPCQDWAAQEPHRHSIFTPETNPRAGLEKNYCRNPDGDVGGPWCYTTNPRKLYDYCDVPQCAAP | soluble |
